Test results from paper PMC7498317, “GapR binds DNA through dynamic opening of its tetrameric interface” (Nucleic Acids Research, 2020).

Tests used:
[1] = target: T1, GapR (Caulobacter crescentus, UniProt B8H4R9 1-89); assay: ITC; ITC: 50 mM sodium phosphate pH 7.0, 200 mM NaCl, 4 C; 25 uM GapR tetramer in cell, 0.25 mM DNA injected; NMR: 0.1 mM tetramer, 0.02-0.1 mM DNA; conditions: protein: recombinant, tags: C-terminal His6 (pET-21a), chain copies: 4, blunt
T1 sequence: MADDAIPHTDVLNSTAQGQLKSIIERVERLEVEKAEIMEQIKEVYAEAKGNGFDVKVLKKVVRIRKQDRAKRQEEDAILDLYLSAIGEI

[2] = target: T2, GapR G87A (Caulobacter crescentus, UniProt B8H4R9 1-89, G87A); assay: NMR (1H-15N HSQC titration); minor peaks disappear on DNA addition; ITC: 50 mM sodium phosphate pH 7.0, 200 mM NaCl, 4 C; 25 uM GapR tetramer in cell, 0.25 mM DNA injected; NMR: 0.1 mM tetramer, 0.02-0.1 mM DNA; conditions: protein: recombinant; tags: C-terminal His6 (pET-21a); chain copies: 4; blunt
T2 sequence: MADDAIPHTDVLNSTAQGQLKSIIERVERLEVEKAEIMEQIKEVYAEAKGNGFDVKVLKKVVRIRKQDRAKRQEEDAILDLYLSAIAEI

[3] = target: the molecule itself; assay: cross-linking; 0.1 mM protein, EGS 0.5 and 1 mM, 50 mM sodium phosphate, 150 mM NaCl, pH 7.2, room temperature, 10 min; self-association
[4] = target: the molecule itself; assay: SEC-MALS; Superdex-75 HR 10/30, 50 mM sodium phosphate pH 7.0, 150 mM NaCl, 25°C; free GapR 0.5, 1.0 and 2.0 mg/mL, GapR^ΔC17 2.0 mg/ml; self-association
[5] = target: the molecule itself; assay: SEC; Superdex 75, 50 mM sodium phosphate pH 7.0, 150 mM NaCl; apparent molecular weight from the elution volume; self-association
[6] = target: T1, GapR; assay: ITC; netropsin-bound DNA; ITC: 50 mM sodium phosphate pH 7.0, 200 mM NaCl, 4 C; 25 uM GapR tetramer in cell, 0.25 mM DNA injected; NMR: 0.1 mM tetramer, 0.02-0.1 mM DNA; conditions: protein: recombinant; tags: C-terminal His6 (pET-21a); chain copies: 4; blunt

B1: 11AT (dsDNA)
DNA 1: TTAAAATTAAA
DNA 2: TTTAATTTTAA
Kd [1]: 12.3 ± 4.5 nM

B2: seq2 (dsDNA)
DNA 1: CGTGTTTTCGG
DNA 2: CCGAAAACACG
Kd [1]: 72 ± 19 nM

B3: 10A (dsDNA)
DNA 1: CCGAAAAAAAAAACGC
DNA 2: GCGTTTTTTTTTTCGG
binding result [2]: binds | Kd [1]: 11.6 ± 2.5 nM

B4: GapR (growth-associated A/T-binding protein involved in regulation), full length, residues 1-89 (natural protein, C. crescentus, UniProt B8H4R9 1-89, looked up)
chain: MADDAIPHTDVLNSTAQGQLKSIIERVERLEVEKAEIMEQIKEVYAEAKGNGFDVKVLKKVVRIRKQDRAKRQEEDAILDLYLSAIGEI
notes: GapR of Caulobacter crescentus, gene CCNA_03428, residues 1-89 (full length); theoretical monomer mass 11.2 kDa as printed; A selenomethionyl derivative was used for MAD phasing of the GapR/10A complex structure; 15N- or 13C-labelled for NMR; also called free GapR; full-length GapR; source: E. coli Rosetta (DE3), purified (Ni-NTA, size-exclusion chromatography on Superdex 75)
stoichiometry N [3]: 4

B5: GapR^ΔC17 (residues 1-72) (domain or fragment, C. crescentus, UniProt B8H4R9 1-72, looked up)
chain: MADDAIPHTDVLNSTAQGQLKSIIERVERLEVEKAEIMEQIKEVYAEAKGNGFDVKVLKKVVRIRKQDRAKR
notes: GapR of Caulobacter crescentus, gene CCNA_03428, residues 1-72; theoretical dimer mass 18.6 kDa as printed; also called C-terminal truncation mutant; source: E. coli Rosetta (DE3), purified (Ni-NTA, size-exclusion chromatography)
stoichiometry N [4]: 2

B6: GapR^ΔC8 (residues 1-81) (domain or fragment, C. crescentus, UniProt B8H4R9 1-81, looked up)
chain: MADDAIPHTDVLNSTAQGQLKSIIERVERLEVEKAEIMEQIKEVYAEAKGNGFDVKVLKKVVRIRKQDRAKRQEEDAILDL
notes: GapR of Caulobacter crescentus, gene CCNA_03428, residues 1-81; also called C-terminal truncation mutant; source: E. coli Rosetta (DE3), purified (Ni-NTA, size-exclusion chromatography)
stoichiometry N [5]: 2

B7: GapR^ΔN10 (residues 11-89) (domain or fragment, C. crescentus, UniProt B8H4R9 11-89, looked up)
chain: VLNSTAQGQLKSIIERVERLEVEKAEIMEQIKEVYAEAKGNGFDVKVLKKVVRIRKQDRAKRQEEDAILDLYLSAIGEI
notes: GapR of Caulobacter crescentus, gene CCNA_03428, residues 11-89; pET-28a(+) with a thrombin-cleavable N-terminal His6-tag; the tag was removed by thrombin; also called N-terminal truncation mutant; source: E. coli Rosetta (DE3), purified (Ni-NTA, thrombin cleavage, size-exclusion chromatography); not shown: His6, N-terminal, cleaved
binding result [5]: binds

B8: 6CpG (dsDNA)
DNA 1: CGCGCGCGCGCG
DNA 2: CGCGCGCGCGCG
Kd ([1]; self-complementary): 118 ± 17 nM

B9: seq1 (dsDNA)
DNA 1: GCGAAATTGATCG
DNA 2: CGATCAATTTCGC
Kd [1]: 72 ± 24 nM

B10: 5ApT (dsDNA)
DNA 1: CCGATATATATATCGC
DNA 2: GCGATATATATATCGG
Kd [1]: 12.3 ± 8.9 nM | Kd [6]: 16.6 ± 4.5 nM
